Here are results for one protein from US8889709B2, “Use of isoQC inhibitors in the treatment and prevention of inflammatory diseases or conditions” (Probiodrug AG, priority 2006, dated 2014).

Common to all, as to test: Kinetic parameters of conversion of peptide substrates by murine isoQC
Format in all cases: biochemical, mouse
Settings in all cases: pH 8.0; 30.0 °C

Substrate in data set [1]: NC(=O)CC[C@H](N)C(=O)N[C@@H](CCC(=O)O)C(=O)O
Substrate in data set [2]: NC(=O)CC[C@H](N)C(=O)NCC(=O)N1CCC[C@H]1C(=O)O
Substrate in data set [3]: C[C@H](NC(=O)[C@H](Cc1ccc(O)cc1)NC(=O)[C@@H](N)CCC(N)=O)C(=O)O

B1: mouse-isoQC (Mus musculus; I74N) (protein)
chain: EEMSRSRDLRVPLNGSLSEAKLRLVVGQLDPQRLWGTFLRPLLIVRPPGSSGNLQVRKFLEATLQSLSAGWHVELDPFTASTPLGPLDFGNVVATLDPGAARHLTLACHYDSKFFPPGLPPFVGATDSAVPCALLLELVQALDAMLSRIKQQAAPVTLQLLFLDGEEALKEWGPKDSLYGSRHLAQIMESIPHSPGPTRIQAIELFVLLDLLGASSPIFFSHFPRTARWFQRLRSIEKRLHRLNLLQSHPQEVMYFQPGEPPGPVEDDHIPFLRRGVPVLHLIATPFPAVWHTPADTEANLHPPTVHNLSRILAVFLAEYLGL
notes: starting with codon 43 (Glu 43) of the open reading frame (counting from methionine II); yeast alpha-factor secretion signal (N); made in house; host or cells: Pichia pastoris X-33
As usually defined, the Km is the substrate concentration at which the rate is half of its maximum. As a reminder, the kcat is the number of substrate molecules converted per active site and unit of time at saturation. Broadly, the kcat/Km is the second-order rate constant that governs catalysis at low substrate concentration. Take B1: in data set [1], the Km was 470 ± 40 µM, the kcat was found to be 7.79 ± 0.44 s⁻¹ and the kcat/Km came out at 16880 ± 2320 M⁻¹ s⁻¹. Further, in data set [2], the Km stood at 102 ± 6 µM, the kcat stood at 11.4 ± 0.4 s⁻¹ and the kcat/Km was determined as 111440 ± 6810 M⁻¹ s⁻¹. Also, in data set [3], the Km was determined as 58 ± 4 µM, the kcat was found to be 22.9 ± 0.86 s⁻¹ and the kcat/Km was 394230 ± 21360 M⁻¹ s⁻¹.
